Assay results: article PMC11574045, “A cofactor-induced repressive type of transcription factor condensation can be induced by synthetic peptides to suppress tumorigenesis” (The EMBO Journal, 2024)

Test system: HEK293FT cells transfected with TF library
Assay: Screening of TF condensates based on fluorescent puncta
Assay type: cell-based
Settings: Figure 1B numerical data; TF library screen, one value per transcriptional factor
Method in brief: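 TF plasmids (final 1.6 μg/ml) reverse-transfected with PEI (4.8 μg/ml) into HEK293FT cells; after 60 h, cells cultured ±glucose for 12 h, fixed in 4% PFA and immunostained for Flag or GAL4 tags with Alexa 488 secondaries. Puncta scored by automated imaging of 50 random fields per well.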

Row | Molecule | Z score of condensed fraction
1 | ZBTB26 (protein, UniProt Q9HCK0 1-441, looked up) Zinc finger and BTB …: MSERSDLLHFKFENYGDSMLQKMNKLREENKFCDVTVLIDDIEVQGHKIVFAAGSPFLRDQFLLNDSREVKISILQSSEVGRQLLLSCYSGVLEFPEMELVNYLTAASFLQMSHIVERCTQALWKFIKPKQPMDSKEGCEPQSASPQSKEQQGDARGSPKQDSPCIHPSEDSMDMEDSDIQIVKVESIGDVSEVRSKKDQNQFISSEPTALHSSEPQHSLINSTVENRVSEIEQNHLHNYALSYTGSDNIIMASKDVFGPNIRGVDKGLQWHHQCPKCTRVFRHLENYANHLKMHKLFMCLLCGKTFTQKGNLHRHMRVHAGIKPFQCKICGKTFSQKCSLQDHLNLHSGDKPHKCNYCDMVFAHKPVLRKHLKQLHGKNSFDNANERNVQDLTVDFDSFACTTVTDSKGCQPQPDATQVLDAGKLAQAVLNLRNDSTCVN | 0.2152
2 | ZBTB4 (protein, UniProt Q9P1Z0 1-1013, looked up) Zinc finger and BTB …: MPPPAEVTDPSHAPAVLRQLNEQRLRGLFCDVTLIAGDTKFPAHRSVLAASSPFFREALLTSAPLPLPPATGGAAPNPATTTAASSSSSSSSSSSSSSSSASSSSSSSSSSPPPASPPASSPPRVLELPGVPAAAFSDVLNFIYSARLALPGGGGDGAAVAEIGALGRRLGISRLQGLGEGGDAWVPPTPAPMATSQPEEDSFGPGPRPAGEWEGDRAEAQAPDLQCSLPRRPLPCPQCGKSFIHPKRLQTHEAQCRRGASTRGSTGLGAGGAGPGGPAGVDASALPPPVGFRGGPEHVVKVVGGHVLYVCAACERSYVTLSSLKRHSNVHSWRRKYPCRYCEKVFALAEYRTKHEVWHTGERRYQCIFCWETFVTYYNLKTHQRAFHGISPGLLASEKTPNGGYKPKLNTLKLYRLLPMRAAKRPYKTYSQGAPEAPLSPTLNTPAPVAMPASPPPGPPPAPEPGPPPSVITFAHPAPSVIVHGGSSSGGGGSGTASTGGSQAASVITYTAPPRPPKKREYPPPPPEPAATPTSPATAVSPATAAGPAMATTTEEAKGRNPRAGRTLTYTAKPVGGIGGGGGPPTGAGRGPSQLQAPPPLCQITVRIGEEAIVKRRISETDLRPGELSGEEMEESEEDEEEEDEEEEEEDEEESKAGGEDQLWRPYYSYKPKRKAGAAGGASVGGSGLPRGRRPPRWRQKLERRSWEETPAAESPAGRARTERRHRCGDCAQTFTTLRKLRKHQEAHGGGSHSSRAGRRPSTRFTCPHCAKVCKTAAALSRHGQRHAAERPGGTPTPVIAYSKGSAGTRPGDVKEEAPQEMQVSSSSGEAGGGSTAAEEASETASLQDPIISGGEEPPVVASGGSYVYPPVQEFPLALIGGGREPGGGRGKSGSEGPVGAGEGDRMEGIGAAKVTFYPEPYPLVYGPQLLAAYPYNFSNLAALPVALNMVLPDEKGAGALPFLPGVFGYAVNPQAAPPAPPTPPPPTLPPPIPPKGEGERAGVERTQKGDVG | 1.258
3 | ZBTB38 (protein, UniProt Q8NAP3 1-1195, looked up) Zinc finger and BTB …: MTVMSLSRDLKDDFHSDTVLSILNEQRIRGILCDVTIIVEDTKFKAHSNVLAASSLYFKNIFWSHTICISSHVLELDDLKAEVFTEILNYIYSSTVVVKRQETVTDLAAAGKKLGISFLEDLTDRNFSNSPGPYVFCITEKGVVKEEKNEKRHEEPAITNGPRITNAFSIIETENSNNMFSPLDLRASFKKVSDSMRTASLCLERTDVCHEAEPVRTLAEHSYAVSSVAEAYRSQPVREHDGSSPGNTGKENCEALAAKPKTCRKPKTFSIPQDSDSATENIPPPPVSNLEVNQERSPQPAAVLTRSKSPNNEGDVHFSREDENQSSDVPGPPAAEVPPLVYNCSCCSKAFDSSTLLSAHMQLHKPTQEPLVCKYCNKQFTTLNRLDRHEQICMRSSHMPIPGGNQRFLENYPTIGQNGGSFTGPEPLLSENRIGEFSSTGSTLPDTDHMVKFVNGQMLYSCVVCKRSYVTLSSLRRHANVHSWRRTYPCHYCNKVFALAEYRTRHEIWHTGERRYQCIFCLETFMTYYILKNHQKSFHAIDHRLSISKKTANGGLKPSVYPYKLYRLLPMKCKRAPYKSYRNSSYENARENSQMNESAPGTYVVQNPHSSELPTLNFQDTVNTLTNSPAIPLETSACQDIPTSANVQNAEGTKWGEEALKMDLDNNFYSTEVSVSSTENAVSSDLRAGDVPVLSLSNSSENAASVISYSGSAPSVIVHSSQFSSVIMHSNAIAAMTSSNHRAFSDPAVSQSLKDDSKPEPDKVGRFASRPKSIKEKKKTTSHTRGEIPEESNYVADPGGSLSKTTNIAEETSKIETYIAKPALPGTSTNSNVAPLCQITVKIGNEAIVKRHILGSKLFYKRGRRPKYQMQEEPLPQGNDPEPSGDSPLGLCQSECMEMSEVFDDASDQDSTDKPWRPYYNYKPKKKSRQLKKMRKVNWRKEHGNRSPSHKCKYPAELDCAVGKAPQDKPFEEEETKEMPKLQCELCDGDKAVGAGNQGRPHRHLTSRPYACELCAKQFQSPSTLKMHMRCHTGEKPYQCKTCGRCFSVQGNLQKHERIHLGLKEFVCQYCNKAFTLNETLKIHERIHTGEKRYHCQFCFQRFLYLSTKRNHEQRHIREHNGKGYACFQCPKICKTAAALGMHQKKHLFKSPSQQEKIGDVCHENSNPLENQHFIGSEDNDQKDNIQTGVENVVL | -1.284
4 | ZBTB43 (protein, UniProt O43298 1-467, looked up) Zinc finger and BTB …: MEPGTNSFRVEFPDFSSTILQKLNQQRQQGQLCDVSIVVQGHIFRAHKAVLAASSPYFCDQVLLKNSRRIVLPDVMNPRVFENILLSSYTGRLVMPAPEIVSYLTAASFLQMWHVVDKCTEVLEGNPTVLCQKLNHGSDHQSPSSSSYNGLVESFELGSGGHTDFPKAQELRDGENEEESTKDELSSQLTEHEYLPSNSSTEHDRLSTEMASQDGEEGASDSAEFHYTRPMYSKPSIMAHKRWIHVKPERLEQACEGMDVHATYDEHQVTESINTVQTEHTVQPSGVEEDFHIGEKKVEAEFDEQADESNYDEQVDFYGSSMEEFSGERSDGNLIGHRQEAALAAGYSENIEMVTGIKEEASHLGFSATDKLYPCQCGKSFTHKSQRDRHMSMHLGLRPYGCGVCGKKFKMKHHLVGHMKIHTGIKPYECNICAKRFMWRDSFHRHVTSCTKSYEAAKAEQNTTEAN | 0.02104
5 | ZBTB21 (protein, UniProt Q9ULJ3 1-1066, looked up) Zinc finger and BTB …: MEGLLHYINPAHAISLLSALNEERLKGQLCDVLLIVGDQKFRAHKNVLAASSEYFQSLFTNKENESQTVFQLDFCEPDAFDNVLNYIYSSSLFVEKSSLAAVQELGYSLGISFLTNIVSKTPQAPFPTCPNRKKVFVEDDENSSQKRSVIVCQSRNEAQGKTVSQNQPDVSHTSRPSPSIAVKANTNKPHVPKPIEPLHNLSLTEKSWPKDSSVVYAKSLEHSGSLDDPNRISLVKRNAVLPSKPLQDREAMDDKPGVSGQLPKGKALELALKRPRPPVLSVCSSSETPYLLKETNKGNGQGEDRNLLYYSKLGLVIPSSGSGSGNQSIDRSGPLVKSLLRRSLSMDSQVPVYSPSIDLKSSQGSSSVSSDAPGNVLCALSQKSSLKDCSEKTALDDRPQVLQPHRLRSFSASQSTDREGASPVTEVRIKTEPSSPLSDPSDIIRVTVGDAATTAAASSSSVTRDLSLKTEDDQKDMSRLPAKRRFQADRRLPFKKLKVNEHGSPVSEDNFEEGSSPTLLDADFPDSDLNKDEFGELEGTRPNKKFKCKHCLKIFRSTAGLHRHVNMYHNPEKPYACDICHKRFHTNFKVWTHCQTQHGIVKNPSPASSSHAVLDEKFQRKLIDIVREREIKKALIIKLRRGKPGFQGQSSSQAQQVIKRNLRSRAKGAYICTYCGKAYRFLSQFKQHIKMHPGEKPLGVNKVAKPKEHAPLASPVENKEVYQCRLCNAKLSSLLEQGSHERLCRNAAVCPYCSLRFFSPELKQEHESKCEYKKLTCLECMRTFKSSFSIWRHQVEVHNQNNMAPTENFSLPVLDHNGDVTGSSRPQSQPEPNKVNHIVTTKDDNVFSDSSEQVNFDSEDSSCLPEDLSLSKQLKIQVKEEPVEEAEEEAPEASTAPKEAGPSKEASLWPCEKCGKMFTVHKQLERHQELLCSVKPFICHVCNKAFRTNFRLWSHFQSHMSQASEESAHKESEVCPVPTNSPSPPPLPPPPPLPKIQPLEPDSPTGLSENPTPATEKLFVPQESDTLFYHAPPLSAITFKRQFMCKLCHRTFKTAFSLWSHEQTHN | -0.7871
6 | ZBTB37 (protein, UniProt Q5TC79 1-503, looked up) Zinc finger and BTB …: MEKGGNIQLEIPDFSNSVLSHLNQLRMQGRLCDIVVNVQGQAFRAHKVVLAASSPYFRDHMSLNEMSTVSISVIKNPTVFEQLLSFCYTGRICLQLADIISYLTAASFLQMQHIIDKCTQILEGIHFKINVAEVEAELSQTRTKHQERPPESHRVTPNLNRSLSPRHNTPKGNRRGQVSAVLDIRELSPPEESTSPQIIEPSSDVESREPILRINRAGQWYVETGVADRGGRSDDEVRVLGAVHIKTENLEEWLGPENQPSGEDGSSAEEVTAMVIDTTGHGSVGQENYTLGSSGAKVARPTSSEVDRFSPSGSVVPLTERHRARSESPGRMDEPKQPSSQVEESAMMGVSGYVEYLREQEVSERWFRYNPRLTCIYCAKSFNQKGSLDRHMRLHMGITPFVCRMCGKKYTRKDQLEYHIRKHTGNKPFHCHVCGKSFPFQAILNQHFRKNHPGCIPLEGPHSISPETTVTSRGQAEEESPSQEETVAPGEAVQGSVSTTGPD | 0.3942
7 | ZBTB48 (protein, UniProt P10074 1-688, looked up) Zinc finger and BTB …: MDGSFVQHSVRVLQELNKQREKGQYCDATLDVGGLVFKAHWSVLACCSHFFQSLYGDGSGGSVVLPAGFAEIFGLLLDFFYTGHLALTSGNRDQVLLAARELRVPEAVELCQSFKPKTSVGQAAGGQSGLGPPASQNVNSHVKEPAGLEEEEVSRTLGLVPRDQEPRGSHSPQRPQLHSPAQSEGPSSLCGKLKQALKPCPLEDKKPEDCKVPPRPLEAEGAQLQGGSNEWEVVVQVEDDGDGDYMSEPEAVLTRRKSNVIRKPCAAEPALSAGSLAAEPAENRKGTAVPVECPTCHKKFLSKYYLKVHNRKHTGEKPFECPKCGKCYFRKENLLEHEARNCMNRSEQVFTCSVCQETFRRRMELRVHMVSHTGEMPYKCSSCSQQFMQKKDLQSHMIKLHGAPKPHACPTCAKCFLSRTELQLHEAFKHRGEKLFVCEECGHRASSRNGLQMHIKAKHRNERPHVCEFCSHAFTQKANLNMHLRTHTGEKPFQCHLCGKTFRTQASLDKHNRTHTGERPFSCEFCEQRFTEKGPLLRHVASRHQEGRPHFCQICGKTFKAVEQLRVHVRRHKGVRKFECTECGYKFTRQAHLRRHMEIHDRVENYNPRQRKLRNLIIEDEKMVVVALQPPAELEVGSAEVIVESLAQGGLASQLPGQRLCAEESFTGPGVLEPSLIITAAVPEDCDT | 0.7506
8 | ZBTB44 (protein, UniProt Q8NCP5 1-570, looked up) Zinc finger and BTB …: MGVKTFTHSSSSHSQEMLGKLNMLRNDGHFCDITIRVQDKIFRAHKVVLAACSDFFRTKLVGQAEDENKNVLDLHHVTVTGFIPLLEYAYTATLSINTENIIDVLAAASYMQMFSVASTCSEFMKSSILWNTPNSQPEKGLDAGQENNSNCNFTSRDGSISPVSSECSVVERTIPVCRESRRKRKSYIVMSPESPVKCGTQTSSPQVLNSSASYSENRNQPVDSSLAFPWTFPFGIDRRIQPEKVKQAENTRTLELPGPSETGRRMADYVTCESTKTTLPLGTEEDVRVKVERLSDEEVHEEVSQPVSASQSSLSDQQTVPGSEQVQEDLLISPQSSSIGSVDEGVSEGLPTLQSTSSTNAPPDDDDRLENVQYPYQLYIAPSTSSTERPSPNGPDRPFQCPTCGVRFTRIQNLKQHMLIHSGIKPFQCDRCGKKFTRAYSLKMHRLKHEGKRCFRCQICSATFTSFGEYKHHMRVSRHIIRKPRIYECKTCGAMFTNSGNLIVHLRSLNHEASELANYFQSSDFLVPDYLNQEQEETLVQYDLGEHGFESNSSVQMPVISQYHSKGKEP | -0.608
